Measured values: US6331664A, “Acyl-ACP thioesterase nucleic acids from maize and methods of altering palmitic acid levels in transgenic plants therewith” (Dow AgroSciences LLC, priority 1998, dated 2001)
Like-named read-outs stand apart in the source and are kept apart here.

How the values were obtained:
maize OTE [1] = test: Thioesterase assay, substrate specificity and Km of maize OTE purified from kernels; type: biochemical; conditions: for activity relative to that observed with 18:1-ACP: C14-labeled acyl-ACPs; for Km: double reciprocal plots
Procedure: (§1) For enzymatic analysis of E coli expressed maize PTE, substrates were made as follows: ACP (Sigma Chemical Co.) was further purified by three cycles of precipitation at pH 4.0 using 10% (v/v) acetic acid followed by resolubilization in 50 mM Tris-HCl, pH 8.0. Carbon-14 or tritium-labeled fatty acids (lauric, 12:0; myristic, 14:0; palmitic, 16:0; stearic, 18:0; and oleic, 18:1) were obtained from Amersham (Arlington Heights, Ill.) or NEN Research Products. Acyl-ACPs were synthesized and purified according to Rock et al., ((1981) Methods in Enzymology, 72:397-403). Thioesterase assays were conducted according to Ohlrogge et al., ((1978) Arch. Biochem. Biophys. 189:382-391) with slight modifications. A standard reaction contained […] Tris-HCl, pH 8.0, 10 μM radio-labeled acyl-ACP (50-58 μCi/μmol), and enzyme in 50 μL. Reactions were conducted at 30° C. for 5 min and terminated with 200 μL of 10% (v/v) acetic acid. Free fatty acids were extracted twice with 1 mL hexane and the organic phases were combined for liquid scintillation counting. Protein concentrations were determined according to Bradford ((1976) Anal. Biochem. […]:248-254). Linear regressions were used for determination of kinetic constants from double reciprocal plots.
The resolubilized PEG-precipitated material was applied to hydroxyapatite (HA-Ultrogel, Sigma Chemical Co.) which had been previously loaded into a 2.5×20 cm column equilibrated with buffer A. After loading, the column was washed with 300 mL of buffer A and maize OTE activity was eluted with buffer A having 1 M NaCl. Enzymatic activity was followed using C^14 labeled 18:1-ACP as substrate. Production of substrate and biochemical assays were performed as described herein. Fractions having thioesterase activity were pooled and desalted to 20 mM Tris, pH 7.0, 0.4 mM DTT (buffer B) on PD-10 columns (Pharmacia). The desalted fraction was then applied to a MonoQ HR 10/10 column (Pharmacia) and the enzyme was eluted using a linear gradient of 0-0.5 M NaCl in buffer B over 30 min. at a flow rate of 4 mL/min. Fractions were assayed for activity and active fractions were pooled and desalted on PD-10 columns (Pharmacia) equilibrated with buffer A.
The substrate specificity of purified maize OTE was analyzed using several C^14 -labeled acyl-ACPs as described herein. […] Low activities (less than 10% of that observed with 18:1-ACP) were observed when using 12:0-ACP, 14:0-ACP, 16:0-ACP, 18:0-ACP.

maize PTE = test: Thioesterase assay, substrate specificity of partially purified maize PTE expressed in E. coli; type: biochemical; conditions: for Percent Relative Activity: 10 μM radio-labeled acyl-ACP, 30° C., 5 min, 100% = 2.1 units/mg protein
Procedure: as §1

maize OTE [2] = test: Thioesterase assay, substrate specificity of maize OTE expressed in E. coli; type: biochemical; conditions: for Percent Relative Activity: radio-labeled acyl-ACP, 100% = 2.1 units/mg protein
12:0-ACP (Laurate) [3] = biological target: 12:0-ACP (Laurate)
18:1-ACP (Oleate) [4] = biological target: 18:1-ACP (Oleate)
16:0-ACP (Palmitate) [5] = biological target: 16:0-ACP (Palmitate)
18:0-ACP (Stearate) [6] = biological target: 18:0-ACP (Stearate)
14:0-ACP (Myristate) [7] = biological target: 14:0-ACP (Myristate)
12:0-ACP (Laurate) [8] = biological target: 12:0-ACP (Laurate); remark: listed apart in the source
18:1-ACP (Oleate) [9] = biological target: 18:1-ACP (Oleate); remark: listed apart in the source
16:0-ACP (Palmitate) [10] = biological target: 16:0-ACP (Palmitate); remark: listed apart in the source
18:0-ACP (Stearate) [11] = biological target: 18:0-ACP (Stearate); remark: listed apart in the source
14:0-ACP (Myristate) [12] = biological target: 14:0-ACP (Myristate); remark: listed apart in the source
12:0-ACP (Laurate) [13] = biological target: 12:0-ACP (Laurate); remark: listed apart in the source
18:1-ACP (Oleate) [14] = biological target: 18:1-ACP (Oleate); remark: listed apart in the source
16:0-ACP (Palmitate) [15] = biological target: 16:0-ACP (Palmitate); remark: listed apart in the source
18:0-ACP (Stearate) [16] = biological target: 18:0-ACP (Stearate); remark: listed apart in the source
14:0-ACP (Myristate) [17] = biological target: 14:0-ACP (Myristate); remark: listed apart in the source

## 16:0-ACP: radio-labeled palmitic acid thioester of acyl carrier protein, thioesterase substrate
Maize OTE [1]
  activity relative to that observed with 18:1-ACP: less than 10%
  Km: 25 µM
Maize PTE
  Percent Relative Activity: 100.0%
Maize OTE [2]
  Percent Relative Activity: 14.1%

## maize oleoyl-ACP thioesterase, mature protein expressed in E. coli (pDAB371) (enzyme)
12:0-ACP (Laurate) [3]
  Percent Relative Activity (thioesterase assay, release of radio-labeled free fatty acid) (% relative activity): 0.7
18:1-ACP (Oleate) [4]
  Percent Relative Activity (thioesterase assay, release of radio-labeled free fatty acid) (% relative activity): 100
16:0-ACP (Palmitate) [5]
  Percent Relative Activity (thioesterase assay, release of radio-labeled free fatty acid) (% relative activity): 14.1
18:0-ACP (Stearate) [6]
  Percent Relative Activity (thioesterase assay, release of radio-labeled free fatty acid) (% relative activity): 25.2
14:0-ACP (Myristate) [7]
  Percent Relative Activity (thioesterase assay, release of radio-labeled free fatty acid) (% relative activity): 6.3

## maize palmitoyl-ACP thioesterase, mature protein expressed in E. coli (pDAB378) (enzyme)
12:0-ACP (Laurate) [8]
  Percent Relative Activity (thioesterase assay, release of radio-labeled free fatty acid) (% relative activity): 0
18:1-ACP (Oleate) [9]
  Percent Relative Activity (thioesterase assay, release of radio-labeled free fatty acid) (% relative activity): 40.4
16:0-ACP (Palmitate) [10]
  Percent Relative Activity (thioesterase assay, release of radio-labeled free fatty acid) (% relative activity): 100
18:0-ACP (Stearate) [11]
  Percent Relative Activity (thioesterase assay, release of radio-labeled free fatty acid) (% relative activity): 61.2
14:0-ACP (Myristate) [12]
  Percent Relative Activity (thioesterase assay, release of radio-labeled free fatty acid) (% relative activity): 16

## 18:0-ACP: radio-labeled stearic acid thioester of acyl carrier protein, thioesterase substrate
Maize OTE [1]
  activity relative to that observed with 18:1-ACP: less than 10%
Maize PTE
  Percent Relative Activity: 61.2%
Maize OTE [2]
  Percent Relative Activity: 25.2%

## 12:0-ACP: radio-labeled lauric acid thioester of acyl carrier protein, thioesterase substrate
Maize OTE [1]
  activity relative to that observed with 18:1-ACP: less than 10%
Maize PTE
  Percent Relative Activity: 0.0%
Maize OTE [2]
  Percent Relative Activity: 0.7%

## 18:1-ACP: radio-labeled oleic acid thioester of acyl carrier protein, thioesterase substrate
Maize OTE [1]
  Km: 0.75 µM
Maize PTE
  Percent Relative Activity: 40.4%
Maize OTE [2]
  Percent Relative Activity: 100.0%

## maize oleoyl-ACP thioesterase, native protein from maize kernels and embryos (enzyme)
12:0-ACP (Laurate) [13]
  substrate specificity (thioesterase assay with C14-labeled acyl-ACPs) (% of that observed with 18:1-ACP): < 10
18:1-ACP (Oleate) [14]
  Km: 0.75 µM
16:0-ACP (Palmitate) [15]
  Km: 25 µM
  substrate specificity (thioesterase assay with C14-labeled acyl-ACPs) (% of that observed with 18:1-ACP): < 10
18:0-ACP (Stearate) [16]
  substrate specificity (thioesterase assay with C14-labeled acyl-ACPs) (% of that observed with 18:1-ACP): < 10
14:0-ACP (Myristate) [17]
  substrate specificity (thioesterase assay with C14-labeled acyl-ACPs) (% of that observed with 18:1-ACP): < 10

B1: maize PTE: maize palmitoyl-ACP thioesterase, mature protein expressed in E. coli from pDAB378 (protein)
chain: LPDWSMLLAAITTIFLAAEKQWTMLDWKPRRPDMLTDTFGFGRIIHDGLMFRQNFSIRSYEIGADRTASIETLMNHLQETALNHVKTAGLLGDGFGSTPEMSKRNLFWVVSQMQAIIERYPCWGDTVEVDTWVSANGKNGMRRDWHIRDPITGLTILKATSKWVMMNKLTRKLARIPDEVRTEIEPYFFEHSAIVDEDNRKLPKLPEGQSTSVAKYVRTGLTPRWADLDINQHVNNVKYIAWILESAPISILENHELASIVLDYKRECGRDSVLQSHTSVHTDCNSESGETTLHCEHVLSLESGPTMVKARTMWRPKGTKAQETVVPSSI
Maize PTE; unit = cleavage of 1 μmol/h free fatty acid at 30° C., 16:0-ACP
  specific activity equivalent to 100% relative activity: 2.1 units/mg protein

B2: maize OTE: maize oleoyl-ACP thioesterase, purified from kernels or expressed in E. coli from pDAB371 (protein)
chain: CARGAPQVSGIEAASPGHAAVTAALAKAEGGDARPSLAERLRLGNLLEDGLSYKESFIVRCYEVGINKTATVETIANLLQEVGCNHAQSVGFSTDGFATTTTMRKLGLIWVTNRMHIEIYKYPAWGDVVEIETWCQEDGRIGTRRDWILKDLANGEVIGRATSKWVMMNQNTRRLQRVSDDVRDEVFMHCPKAPRLAFPEENNGSLKKIPNLSDPAEYSRLGLVPRRADLDMNQHVNNVTYIGWVLESIPQDIIDTHELQTITLDYRRECQQDDIVDSLTCIEEGEEKSMNGSASAAAPHKEERQQFLHCLRFAANGHEINRGRTVWRKLAR
Maize OTE [2]; unit = cleavage of 1 μmol/h free fatty acid at 30° C., 18:1-ACP
  specific activity equivalent to 100% relative activity: 2.1 units/mg protein
